The test system of this data set is trypsin. The data set is described as follows: Fluorescence lifetime after trypsin treatment of the labeled peptide. The class given is physicochemical. As to conditions: trypsin-treated monomeric peptide, cleavage into short fragments; FLIM; mean ± SD. From the text: For the HF488 dye to function as a direct reporter of amyloid formation in vivo, its fluorescence lifetime must respond to the conformational changes associated with amyloid formation but remain largely unaffected by extrinsic factors, such as the solution conditions that the Aβ peptides may encounter in the living cell. […] That is, it is insensitive to pH changes in this range. […] Furthermore, the fluorescence lifetime of the unconjugated HF488 dye (4.0 ± 0.1 ns) is longer than that of the Aβ-conjugated dye (3.7 ± 0.05 ns), perhaps as a result of interactions between the dye and the polypeptide chain in the latter case ([Chen et al., 2010]). […]
All FLIM experiments were carried out using HF488-labeled Aβ peptides, and images were recorded by time-correlated single photon counting (TCSPC) using a confocal microscopy platform built on an Olympus Fluoview FV300 confocal scan unit. […] The excitation beam was reflected onto the sample with a 20/80 broad bandwidth coated beam splitter so that 20% of the excitation light passed on to the sample and 80% of the fluorescence signal was reflected toward the confocal pinhole. The fluorescence light was passed through a 515-nm Semrock long-pass filter (Laser 2000) and passed onto a fast photomultiplier tube (PMC-100, Becker & Hickl). Lifetimes were recorded using TCSPC circuitry (SPC-830, Becker & Hickl). […]

We go through 1 substance from article PMC4067742, “Direct Observations of Amyloid β Self-Assembly in Live Cells Provide Insights into Differences in the Kinetics of Aβ(1–40) and Aβ(1–42) Aggregation” (Chemistry & Biology, 2014).

With “^HF488Aβ(1–40): Synthetic 40-residue amyloid β peptide labeled at the N terminus with Hilyte Fluor 488, purchased from Anaspec”, the “mean fluorescence lifetime after trypsin treatment” value was 4.0 ± 0.1 ns.
